Measurements as given in IntAct's records for PubMed 23035120.

B1: Protein kinase C and casein kinase substrate in neurons protein 1 (Mus musculus), Q61644 (parent)
chain: MSGSYDEASEEITDSFWEVGNYKRTVKRIDDGHRLCNDLMSCVQERAKIEKAYAQQLTDWAKRWRQLIEKGPQYGSLERAWGAMMTEADKVSELHQEVKNSLLNEDLEKVKNWQKDAYHKQIMGGFKETKEAEDGFRKAQKPWAKKMKELEAAKKAYHLACKEERLAMTREMNSKTEQSVTPEQQKKLVDKVDKCRQDVQKTQEKYEKVLEDVGKTTPQYMEGMEQVFEQCQQFEEKRLVFLKEVLLDIKRHLNLAENSSYMHVYRELEQAIRGADAQEDLRWFRSTSGPGMPMNWPQFEEWNPDLPHTTAKKEKQPKKAEGATLSNATGAVESTSQAGDRGSVSSYDRGQTYATEWSDDESGNPFGGNEANGGANPFEDDAKGVRVRALYDYDGQEQDELSFKAGDELTKLGEEDEQGWCRGRLDSGQLGLYPANYVEAI

Variants of: B1
Conditions: with Mapt

Variant	effect of a mutation on the interaction
P434L	disrupting interaction
